Results reported in US20230144799A1 (published 2023).
*1 amine or outer side, *2 acyl side, *3 side chain or, on linkers, in order; H or OH if unused. Bridges are numbered along the chain shown (N, C = ends). Primed or numbered codes have the meaning given here. Where no end group is shown, it is not given here. [ ]: non-standard residue; d: D form. Sar10″ = ten sarcosine residues, CN(CC(=O)N(C)CC(=O)N(C)CC(=O)N(C)CC(=O)N(C)CC(=O)[*:2])C(=O)CN(C)C(=O)CN(C)C(=O)CN(C)C(=O)CN(C)C(=O)CN(C)[*:1]; TATA = O=C(CC[*:1])N1CN(C(=O)CC[*:2])CN(C(=O)CC[*:3])C1; Hyp = O=C(O)[C@@H]1C[C@@H](O)CN1; hArg = N=C(N)NCCCC[C@H](N)C(=O)O; βAla = NCCC(=O)O

B1: BCY6173 (peptide)
peptide: [βAla][Sar10″]A[hArg]DC[Hyp]LVNPLCLHP[dD]W[hArg]C-NH2
modifications: linker 6-13-20 via TATA (inferred); also: conjugated to DM1-SS(SO3H)- linker/toxin, attachment site not given here
B2: BCY6136 (peptide)
peptide: [βAla][Sar10″]A[hArg]DC[Hyp]LVNPLCLHP[dD]W[hArg]C-NH2
modifications: linker 6-13-20 via TATA (inferred); also: conjugated to ValCit-MMAE linker/toxin, attachment site not given here
notes: also called BT5528

Target: T1, Rat EphA2, biotinylated (in house) (Rat)
T1 construct: SPR target captured on streptavidin; also called Rat EphA2 (SPR)
T1 sequence (Q03145 other isoform, or with tags, fused parts or gaps): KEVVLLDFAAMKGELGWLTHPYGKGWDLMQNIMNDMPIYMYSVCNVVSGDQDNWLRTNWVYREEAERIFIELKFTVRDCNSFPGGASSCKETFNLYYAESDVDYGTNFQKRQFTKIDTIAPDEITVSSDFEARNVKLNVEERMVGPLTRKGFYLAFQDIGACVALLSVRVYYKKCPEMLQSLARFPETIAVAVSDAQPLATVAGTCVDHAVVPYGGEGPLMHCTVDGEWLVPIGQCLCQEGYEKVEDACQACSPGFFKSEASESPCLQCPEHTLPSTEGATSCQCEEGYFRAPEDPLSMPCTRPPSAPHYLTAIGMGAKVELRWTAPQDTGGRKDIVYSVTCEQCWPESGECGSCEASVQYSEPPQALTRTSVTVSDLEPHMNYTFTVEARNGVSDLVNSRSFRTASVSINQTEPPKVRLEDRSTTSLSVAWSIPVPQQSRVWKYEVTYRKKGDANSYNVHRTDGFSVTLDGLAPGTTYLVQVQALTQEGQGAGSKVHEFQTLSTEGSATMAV
Assay: SPR (Biacore 3000), biotinylated rat EphA2 on streptavidin, 1:1 model

Binder | Kd | t1/2
B1 | 1.1 nM | 12 min
B2 | 2.96 nM | 12.6 min
